In patent US20260022175A1 (Chugai, published 2026):
Residue numbers refer to the chain shown, from its start.

B1: H240-Kn494/L73-k0//H240-Hl514/L73-k0 (antibody)
heavy 1: QDQLVQSGAEVKKPGASVKVSCKASGFNIKDTYIQWVRQAPGQGLEWMGRIDPLRKQTKYREKFEGRVTITADTSTNTAYMELSSLRSEDTAVYYCVRSGREFDYWGQGTLVTVSSASTKGPSVFPLAPSSKSTSGGTAALGCLVKDYFPEPVTVSWNSGALTSGVHTFPAVLQSSGLYSLSSVVTVPSSSLGTQTYICNVNHKPSNTKVDKKVEPKSCDKTHTCPPCPAPEFQWGPMVFLFPPKPKDVLMISRTPEVTCVVVDVSDEEPEVKFNWYVDGVEVHNAKTKPREEQYNATYRVVSVLPVLHQDWLNGKEYKCKVSNKALPAPEEKTISKAKGQPREPQVCTLPPSRDELTKNQVSLWCLVKGFYPSDIAVEWESNGQPENNYKTTPPVLDSDGSFFLYSKLTVDKSRWQQGNVFSCSVMHEALHNHYTQKSLSLSP
heavy 2: QDQLVQSGAEVKKPGASVKVSCKASGFNIKDTYIQWVRQAPGQGLEWMGRIDPLRKQTKYREKFEGRVTITADTSTNTAYMELSSLRSEDTAVYYCVRSGREFDYWGQGTLVTVSSASTKGPSVFPLAPSSKSTSGGTAALGCLVKDYFPEPVTVSWNSGALTSGVHTFPAVLQSSGLYSLSSVVTVPSSSLGTQTYICNVNHKPSNTKVDKKVEPKSCDKTHTCPPCPAPELLGGPSVFLFPPKPKDVLMISRTPEVTCVVVDVSHEEPEVKFNWYVDGVEVHNAKTKPREEQYNATYRVVSVLPVLHQDWLNGKEYKCKVSNDALPAPEEETISKAKGQPREPQVYTLPPSRCELTKNQVSLSCAVKGFYPSDIAVEWESNGQPENNYKTTPPVLDSDGSFFLVSKLTVDKSRWQQGNVFSCSVMHEALHNHYTQKSLSLSP
light: DIQMTQSPSSLSASVGDRVTITCRASQDIHKYIAWYQQKPGQAPRLLIQYTSTLQPGVPSRFSGSGSGTDYTFTISSLQPEDIATYYCLQYEQLRTFGGGTKVEIKRTVAAPSVFIFPPSDEQLKSGTASVVCLLNNFYPREAKVQWKVDNALQSGNSQESVTEQDSKDSTYSLSSTLTLSKADYEKHKVYACEVTHQGLSSPVTKSFNRGEC
notes: also called EGL-ART10; ART10; copies: 1 + 1 + 2
B2: H240-Kn496/L73-k0//H240-Hl516/L73-k0 (antibody)
heavy 1: B1 heavy 1 with E331I
heavy 2: B1 heavy 2 with E331I
light: B1 light
notes: also called EGL-ART11; ART11; copies: 1 + 1 + 2
B3: 04H1654-G1m/04L1612-lam1 (antibody, human IgG1, lambda)
heavy: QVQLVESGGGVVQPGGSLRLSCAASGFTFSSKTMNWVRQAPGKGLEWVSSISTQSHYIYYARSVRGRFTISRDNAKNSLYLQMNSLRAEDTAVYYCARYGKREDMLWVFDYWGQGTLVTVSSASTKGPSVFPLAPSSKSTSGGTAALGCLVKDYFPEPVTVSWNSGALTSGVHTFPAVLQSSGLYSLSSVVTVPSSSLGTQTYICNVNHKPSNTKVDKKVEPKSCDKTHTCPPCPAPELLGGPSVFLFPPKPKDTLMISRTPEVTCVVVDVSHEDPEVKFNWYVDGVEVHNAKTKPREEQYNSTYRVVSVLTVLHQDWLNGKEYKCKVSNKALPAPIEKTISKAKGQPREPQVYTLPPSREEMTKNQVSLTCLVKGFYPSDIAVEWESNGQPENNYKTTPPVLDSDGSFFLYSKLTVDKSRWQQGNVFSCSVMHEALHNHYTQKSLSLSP
light: QSALTQPPSASGSPGQSVTISCEGPSTGVGDYTYVHWYQQHPGKAPKLMIYFTSKKPSGVPDRFSGSKSGNTASLTVSGLQAEDEADYYCQTYAAPLGPMFGGGTKLTVLGQPKAAPSVTLFPPSSEELQANKATLVCLISDFYPGAVTVAWKADSSPVKAGVETTTPSKQSNNKYAASSYLSLTPEQWKSHRSYSCQVTHEGSTVEKTVAPTECS
B4: 04H1656-G1m/04L1610-lam1 (antibody, human IgG1, lambda)
heavy: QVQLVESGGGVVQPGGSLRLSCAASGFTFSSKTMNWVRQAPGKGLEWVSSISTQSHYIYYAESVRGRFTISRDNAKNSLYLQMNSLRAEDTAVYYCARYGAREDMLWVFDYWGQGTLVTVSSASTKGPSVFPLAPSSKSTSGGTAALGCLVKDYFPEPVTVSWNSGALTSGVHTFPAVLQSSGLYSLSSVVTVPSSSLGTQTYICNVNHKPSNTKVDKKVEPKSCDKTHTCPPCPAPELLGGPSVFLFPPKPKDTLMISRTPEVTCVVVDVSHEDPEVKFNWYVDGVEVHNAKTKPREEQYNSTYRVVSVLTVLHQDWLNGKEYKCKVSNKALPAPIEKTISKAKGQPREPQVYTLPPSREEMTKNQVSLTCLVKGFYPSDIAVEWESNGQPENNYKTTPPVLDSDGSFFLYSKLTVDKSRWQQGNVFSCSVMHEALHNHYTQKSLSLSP
light: B3 light with T33N, Y34W
B5: 04H1389-G1m/04L1615-k0MT (antibody, human IgG1, kappa)
heavy: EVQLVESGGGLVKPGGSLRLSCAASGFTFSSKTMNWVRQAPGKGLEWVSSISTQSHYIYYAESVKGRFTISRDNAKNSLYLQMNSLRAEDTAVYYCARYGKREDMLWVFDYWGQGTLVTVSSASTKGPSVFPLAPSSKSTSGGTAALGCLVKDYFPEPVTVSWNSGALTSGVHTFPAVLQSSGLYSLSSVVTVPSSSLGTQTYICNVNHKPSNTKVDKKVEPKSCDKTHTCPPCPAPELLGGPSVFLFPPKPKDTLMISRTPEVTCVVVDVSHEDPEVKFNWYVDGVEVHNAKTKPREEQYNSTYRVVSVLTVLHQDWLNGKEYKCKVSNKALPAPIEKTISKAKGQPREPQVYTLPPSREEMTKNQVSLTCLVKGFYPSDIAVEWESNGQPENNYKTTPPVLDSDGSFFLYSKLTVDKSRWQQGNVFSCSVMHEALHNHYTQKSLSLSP
light: DIVMTQSPLSLPVTPGEPASISCQGPSTGVGDYNYVHWYQQKPGQAPRLLIYFTSKKPSGVPDRFSGSGSGTDFTLKISRVEAEDVGVYYCQTYAAPLGPMFGQGTKLEIKRTVAAPSVFIFPPSDEQLKSGTASVVCLLNNFYPREAKVQWKVDNALQSGNSQESVTEQDSKDSTYSLSSTLTLSKADYEKHKVYACEVTHQGLSSPVTKSFNRGEC
B6: 04H1389-mFa55/04L1615-mk1 (antibody, mouse IgG2a, kappa)
heavy: EVQLVESGGGLVKPGGSLRLSCAASGFTFSSKTMNWVRQAPGKGLEWVSSISTQSHYIYYAESVKGRFTISRDNAKNSLYLQMNSLRAEDTAVYYCARYGKREDMLWVFDYWGQGTLVTVSSAKTTAPSVYPLAPVCGDTTGSSVTLGCLVKGYFPEPVTLTWNSGSLSSGVHTFPAVLQSDLYTLSSSVTVTSSTWPSQSITCNVAHPASSTKVDKKIEPRGPTIKPCPPCKCPAPNLLGGPDVFIFPPKIKDVLMISLSPIVTCVVVDVSEDDPDVQISWFVNNVEVHTAQTQTHREDYNSTLRVVSALPIQHQDWMSGKEFKCKVNNKDLPAPIERTISKPKGSVRAPQVYVLPPPEEEMTKKQVTLTCMVTDFMPEDIYVEWTNNGKTELNYKNTEPVLDSDGSYFMYSKLRVEKKNWVERNSYSCSVVHEGLHNHHTTKSFSRTPGK
light: DIVMTQSPLSLPVTPGEPASISCQGPSTGVGDYNYVHWYQQKPGQAPRLLIYFTSKKPSGVPDRFSGSGSGTDFTLKISRVEAEDVGVYYCQTYAAPLGPMFGQGTKLEIKRADAAPTVSIFPPSSEQLTSGGASVVCFLNNFYPKDINVKWKIDGSERQNGVLNSWTDQDSKDSTYSMSSTLTLTKDEYERHNSYTCEATHKTSTSPIVKSFNRNEC
notes: Mouse constant regions mFa55 and mk1; also called SW1615-mFa55
B7: 04H1654-mFa55m2P1/04L1610-ml0r (antibody, mouse IgG2a)
heavy: B6 heavy with E1Q, L11V, K13Q, E62R, K65R, D404R
light: QSALTQPPSASGSPGQSVTISCEGPSTGVGDYNWVHWYQQHPGKAPKLMIYFTSKKPSGVPDRFSGSKSGNTASLTVSGLQAEDEADYYCQTYAAPLGPMFGGGTKLTVLGQPKSSPSVTLFPPSSEELETNKATLVCTITDFYPGVVTVDWKVDGTPVTQGMETTQPSKQSNNKYMASSYLTLTARAWERHSSYSCQVTHEGHTVEKSLSRADCS
notes: Mouse constant regions; also called one arm of SW1610-mFa55
B8: 04H1654-mFa55m2P1/04L1612-ml0r (antibody, mouse IgG2a)
heavy: B6 heavy with E1Q, L11V, K13Q, E62R, K65R, D404R
light: B7 light with N33T, W34Y
notes: Mouse constant regions; also called one arm of SW1612-mFa55
B9: 04H1656-mFa55m2N1/04L1610-ml0r (antibody, mouse IgG2a)
heavy: B6 heavy with E1Q, L11V, K13Q, K65R, K101A, K414E
light: B7 light
notes: Mouse constant regions; also called other arm of SW1610-mFa55
B10: 04H1656-mFa55m2N1/04L1612-ml0r (antibody, mouse IgG2a)
heavy: B6 heavy with E1Q, L11V, K13Q, K65R, K101A, K414E
light: B7 light with N33T, W34Y
notes: Mouse constant regions; also called other arm of SW1612-mFa55

Legend:
[1] = molecular target: T1, human C1q protein (Calbiochem) (human, UniProt P02745 23-245; P02746 28-253; P02747 29-245); experiment: ELISA, antibody on the plate, hC1q 3 µg/mL
T1 construct: bought; also called hC1q
T1 sequence (P02745 23-245 limits assumed, chain 1 of 3): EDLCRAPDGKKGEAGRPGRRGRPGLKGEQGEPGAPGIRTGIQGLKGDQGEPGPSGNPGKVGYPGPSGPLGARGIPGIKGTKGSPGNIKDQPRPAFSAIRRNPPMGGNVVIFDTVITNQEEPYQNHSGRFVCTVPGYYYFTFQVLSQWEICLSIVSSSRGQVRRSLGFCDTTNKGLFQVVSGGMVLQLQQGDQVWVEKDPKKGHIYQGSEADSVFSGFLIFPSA
T1 sequence (P02746 28-253 limits assumed, chain 2 of 3): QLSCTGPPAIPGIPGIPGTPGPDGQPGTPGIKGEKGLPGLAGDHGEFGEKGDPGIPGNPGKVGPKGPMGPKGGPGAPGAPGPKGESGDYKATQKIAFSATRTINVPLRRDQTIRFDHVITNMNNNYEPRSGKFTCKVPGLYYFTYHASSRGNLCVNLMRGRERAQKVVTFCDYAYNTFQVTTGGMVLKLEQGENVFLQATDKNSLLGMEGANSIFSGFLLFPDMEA
T1 sequence (P02747 29-245 limits assumed, chain 3 of 3): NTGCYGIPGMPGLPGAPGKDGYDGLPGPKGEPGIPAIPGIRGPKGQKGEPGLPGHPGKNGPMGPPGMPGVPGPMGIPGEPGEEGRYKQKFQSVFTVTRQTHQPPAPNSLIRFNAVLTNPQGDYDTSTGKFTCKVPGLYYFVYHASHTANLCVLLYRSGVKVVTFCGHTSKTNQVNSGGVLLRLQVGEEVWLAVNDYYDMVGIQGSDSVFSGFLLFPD
Protocol: The antigen used was a human C1q protein (hC1q).
First, a 96-well maxisorp plate (Thermo fisher) was coated at 4° C. overnight with 50 μL of solutions containing each antibody prepared at 30, 10, 3, 1, 0.3, 0.1, and 0.03 μg/mL in PBS. Each well of the plate was washed with Wash buffer to remove the antibody not bound to the plate, and then the wells were blocked with 200 μL of Blocking/dilution Buffer at room temperature for 2 hours or longer. After the Blocking/dilution Buffer was removed from each well, hC1q (Calbiochem) prepared such that the final concentration was 3 μg/mL in Blocking/dilution Buffer was added at 50 μL per well. The plate was then allowed to stand at room temperature for 1 hour to allow hC1q to bind to the antibody within each well. After washing with Wash Buffer, 50 μL of an HRP-conjugated anti-hC1q antibody (AbDSerotec) diluted with Blocking/dilution Buffer was added to each well, and the plate was incubated while standing for 1 hour. After washing with Wash Buffer, TMB single solution (Invitrogen) was added. The color development reaction of the solution in each well was stopped by addition of Stop Buffer, and then the developed color was measured by absorbance at 450 nm and 690 nm.

human CTLA4 [2] = molecular target: T2, human CTLA4 (human); experiment: SPR Biacore T200, 37C, antibody captured, no ATP, steady state model
T2 construct: also called hCTLA4; hCTLA4-His-BAP
T2 sequence (chain, as listed by the source limits assumed): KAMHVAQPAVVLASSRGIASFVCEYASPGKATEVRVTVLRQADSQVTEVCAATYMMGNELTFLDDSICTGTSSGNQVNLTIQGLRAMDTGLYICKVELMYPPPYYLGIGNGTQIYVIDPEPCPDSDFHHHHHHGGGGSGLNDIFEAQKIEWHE

human CTLA4 [3] = molecular target: T2, human CTLA4; experiment: SPR Biacore T200, 37C, antibody captured, ATP 1 uM
human CTLA4 [4] = molecular target: T2, human CTLA4; experiment: SPR Biacore T200, 37C, antibody captured, ATP 1 uM; remark: listed apart in the source
[5] = molecular target: T3, mouse CTLA4 extracellular region linked with a His-tag (mCTLA4-His) (mouse, UniProt P09793 36-161); experiment: SPR Biacore T200, 37C, antibody captured, ATP 1 uM
[6] = molecular target: T4, cynomolgus monkey CTLA4 (CyCTLA4-His-BAP) (cynomolgus monkey); experiment: SPR Biacore T200, 37C, antibody captured, ATP 1 uM
T4 sequence (chain, as listed by the source limits assumed): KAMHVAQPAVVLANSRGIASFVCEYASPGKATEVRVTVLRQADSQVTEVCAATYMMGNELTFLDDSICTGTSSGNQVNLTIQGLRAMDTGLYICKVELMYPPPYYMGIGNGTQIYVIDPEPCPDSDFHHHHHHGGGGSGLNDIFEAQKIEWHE

human CTLA4 [7] = molecular target: T2, human CTLA4; experiment: SPR Biacore T200, 37C, antibody captured, ADP 10 uM;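 also: antibodies held on a Protein G CM3 chip, human CTLA4 as analyte in ACES pH 7.4 buffer, rates from a global 1:1 Langmuir fit, Kd from rates or steady state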
human CTLA4 [8] = molecular target: T2, human CTLA4; experiment: SPR Biacore T200, 37C, antibody captured, ATP 10 uM
human CTLA4 [9] = molecular target: T2, human CTLA4; experiment: SPR Biacore T200, 37C, antibody captured, AMP 10 uM
human CTLA4 [10] = molecular target: T2, human CTLA4; experiment: SPR Biacore T200, 37C, antibody captured, ATP 10 uM; remark: listed apart in the source
Protocol: (§1) Biacore T200 was used to measure the binding of the generated antibodies to human CTLA4. 20 mM ACES (pH 7.4), 150 mM NaCl, 2 mM MgCl₂, 0.05% Tween 20 with ATP added to the desired concentration was used as the running buffer, and the assay was performed at 37° C. First, Protein G (CALBIOCHEM) was immobilized onto a Series S Sensor Chip CM3 (GE Healthcare), and the antibodies were captured by interacting an antibody solution prepared in an ATP-free running buffer with the chip. Next, by interacting with a human CTLA4 solution prepared in a running buffer containing ATP to the desired concentration, or a human CTLA4 solution prepared in a running buffer containing no ATP, the binding ability of the antibody to human CTLA4 in the presence or absence of ATP was evaluated. Chips were regenerated with 25 mM NaOH and 10 mM Glycine-HCl (pH 1.5), and assay was performed by repeatedly capturing antibodies. The dissociation constant of each antibody for CTLA4 was calculated using Biacore T200 Evaluation Software 2.0. Specifically, the binding rate constant ka (L/mol/s) and the dissociation rate constant kd (1/s) were calculated by global fitting of the sensorgrams obtained by the measurement, using a 1:1 Langmuir binding model. The dissociation constant KD (mol/L) was calculated from those values. Alternatively, the dissociation constant KD (mol/L) was calculated by the steady state model. In addition, the binding amount of CTLA4 per unit amount of antibody was calculated by correcting the amount of CTLA4 bound as calculated from the sensorgram obtained by the assay with the amount of antibody captured onto the chip surface.
The binding ability of the generated variants to human CTLA4 in the presence of ADP or AMP was evaluated by Biacore T200 and compared with the binding ability in the presence of ATP.

human CTLA4 [11] = molecular target: T2, human CTLA4; experiment: as above; remark: listed apart in the source
Protocol: as §1
(§2) Next, the binding ability of some variants to mouse CTLA4 and cynomolgus monkey CTLA4 was evaluated.

[12] = molecular target: T3, mouse CTLA4 extracellular region linked …; experiment: as above
Protocol: as §1, §2

[13] = molecular target: T4, cynomolgus monkey CTLA4 …; experiment: as above
Protocol: as §1, §2

human CTLA4 [14] = molecular target: T2, human CTLA4; experiment: SPR Biacore T200, 37C, antibody captured, ATP 100 uM
Protocol: as §1, §2

[15] = molecular target: T3, mouse CTLA4 extracellular region linked …; experiment: as above
Protocol: as §1, §2

[16] = molecular target: T4, cynomolgus monkey CTLA4 …; experiment: as above
Protocol: as §1, §2

human CTLA4 [17] = molecular target: T2, human CTLA4; experiment: SPR, 37C, antibody captured by anti-mouse IgG, ATP 1 uM
Protocol: (§3) 20 mM ACES (pH 7.4), 150 mM NaCl, 2 mM MgCl₂, 0.05% Tween 20 with ATP added to the desired concentrations was used as the running buffer, and the assay was performed at 37° C. First, Rabbit Anti-Mouse IgG (Thermo Fisher Scientific) was immobilized onto Series S Sensor Chips CM5 (GE Healthcare), and the antibody was captured onto the chip by interacting an antibody solution prepared in an ATP-free running buffer. Next, the binding ability of the antibody to human CTLA4 in the presence or absence of ATP was evaluated by interacting with a human CTLA4 solution prepared in a running buffer with ATP added to the desired concentration, or a human CTLA4 solution prepared in an ATP-free running buffer. Chips were regenerated with 25 mM NaOH and 10 mM Glycine-HCl (pH 1.5) and assay was performed by repeatedly capturing antibodies. The dissociation constant of each antibody for CTLA4 was calculated using Biacore T200 Evaluation Software 2.0. Specifically, the binding rate constant ka (L/mol/s) and the dissociation rate constant kd (1/s) were calculated by global fitting of the sensorgrams obtained by the measurement using the 1:1 Langmuir binding model, and the dissociation constant KD (mol/L) was calculated from those values.

human CTLA4 [18] = molecular target: T2, human CTLA4; experiment: SPR, 37C, antibody captured by anti-mouse IgG, ATP 100 uM
Protocol: as §3

human CTLA4 [19] = molecular target: T2, human CTLA4; experiment: SPR, 37C, antibody captured by anti-mouse IgG, ATP 10 uM
Protocol: as §3

Row | Binder | Kd (human CTLA4 [2]) [µM] | Kd (human CTLA4 [3]) [µM] | Kd (human CTLA4 [4]) [µM] | Kd [5] [µM] | Kd [6] [µM] | Kd (human CTLA4 [7]) [µM] | koff (human CTLA4 [7]) [s⁻¹] | kon (human CTLA4 [7]) [M⁻¹ s⁻¹] | Kd (human CTLA4 [8]) [µM] | Kd (human CTLA4 [9]) [µM] | koff (human CTLA4 [9]) [s⁻¹] | kon (human CTLA4 [9]) [M⁻¹ s⁻¹] | Kd (human CTLA4 [10]) [µM] | koff (human CTLA4 [10]) [s⁻¹] | kon (human CTLA4 [10]) [M⁻¹ s⁻¹] | Kd (human CTLA4 [11]) [µM] | Kd [12] [µM] | Kd (human CTLA4 [17]) [µM] | Kd (human CTLA4 [18]) [µM] | Kd (human CTLA4 [19]) [µM] | other results
1 | B1 | – | – | – | – | – | – | – | – | – | – | – | – | – | – | – | – | – | – | – | – | binding result [1]: binds
2 | B2 | – | – | – | – | – | – | – | – | – | – | – | – | – | – | – | – | – | – | – | – | binding result [1]: binds
3 | B3 | 4.8 | 0.2 | 0.17 | 0.39 | 0.31 | 0.056 | 0.005 | 89000 | 0.033 | 0.17 | 0.016 | 94000 | 0.036 | 0.0027 | 74000 | 0.03 | 0.048 | – | – | – | Kd [13]: 0.054 µM; Kd (human CTLA4 [14]): 0.011 µM; Kd [15]: 0.018 µM; Kd [16]: 0.021 µM
4 | B4 | 2.2 | 0.098 | 0.079 | 0.23 | 0.12 | 0.025 | 0.0043 | 170000 | 0.019 | 0.082 | 0.014 | 170000 | 0.015 | 0.0019 | 130000 | 0.016 | 0.037 | – | – | – | Kd [13]: 0.026 µM; Kd (human CTLA4 [14]): 0.0062 µM; Kd [15]: 0.014 µM; Kd [16]: 0.01 µM
5 | B5 | 2 | 0.072 | 0.058 | 0.16 | 0.11 | 0.017 | 0.003 | 180000 | 0.015 | 0.055 | 0.0097 | 170000 | 0.011 | 0.0015 | 130000 | 0.012 | 0.026 | – | – | – | Kd [13]: 0.021 µM; Kd (human CTLA4 [14]): 0.005 µM; Kd [15]: 0.01 µM; Kd [16]: 0.0093 µM
6 | B6 | – | – | – | – | – | – | – | – | – | – | – | – | – | – | – | – | – | 0.045 | 0.0087 | 0.015 | –
7 | B7 | – | – | – | – | – | – | – | – | – | – | – | – | – | – | – | – | – | 0.058 | 0.0085 | 0.017 | –
8 | B8 | – | – | – | – | – | – | – | – | – | – | – | – | – | – | – | – | – | 0.094 | 0.012 | 0.029 | –
9 | B9 | – | – | – | – | – | – | – | – | – | – | – | – | – | – | – | – | – | 0.047 | 0.0074 | 0.013 | –
10 | B10 | – | – | – | – | – | – | – | – | – | – | – | – | – | – | – | – | – | 0.067 | 0.01 | 0.02 | –
